Numbering of substitutions follows the chain as printed.
T1: NLRP3 inflammasome (Mus musculus, UniProt Q9EPB4)
T1 sequence (Q9EPB4 1-193): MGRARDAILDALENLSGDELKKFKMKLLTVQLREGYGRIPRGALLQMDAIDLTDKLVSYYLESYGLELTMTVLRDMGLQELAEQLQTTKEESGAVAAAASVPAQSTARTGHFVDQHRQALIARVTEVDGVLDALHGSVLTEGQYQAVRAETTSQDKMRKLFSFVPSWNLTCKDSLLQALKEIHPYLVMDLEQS

B1: human ASC2: wildtype human ASC2, 89 amino acids, SEQ ID NO:7 (protein)
chain: MGTKREAILKVLENLTPEELKKFKMKLGTVPLREGFERIPRGALGQLDIVDLTDKLVASYYEDYAAELVVAVLRDMRMLEEAARLQRAA
B2: hupa4 ASC2: human ASC2 with 4 key sites substituted simultaneously with the ones in bat ASC2, SEQ ID NO:6 (protein)
chain: B1 chain with K10E, E37R, Y61C, R77G

Columns and labels:
[1] = rheumatoid arthritis; cited from earlier work
[2] = system: SARS-COV-2 immune complex-induced inflammasome activation; test: SARS-COV-2 immune complex-induced inflammasome activation in human monocytes; type: cell-based; details: 50 μM MCC950, 18 h
NLRP3 inflammasome [3] = biological target: T2, NLRP3 inflammasome (Homo sapiens, UniProt Q9ULZ3); test: ASC speck and filament formation in HEK293T cells reconstituted with human NLRP3-mCitrine and human ASC-mPlum (ImageStream, confocal); type: cell-based; parameters: expressed in transfected cells; host or cells: HEK293T; details: HEK293T; for ASC2 filament formation / distribution: ImageStream and confocal
Procedure: (§1) Inflammasome activation assays.
ImageStream imaging flow cytometry. […] Nuclei were stained with DAPI.
Confocal imaging. […] At 48 h post-transfection, cells were fixed with 10% formalin for 15 min at room temperature. DAPI (1:2000 dilution) was used for nuclear staining. All samples were then mounted and examined using the Leica TCS SP8 confocal microscope.

NLRP3 inflammasome [4] = biological target: T1, NLRP3 inflammasome; test: Inflammasome activation in LPS-primed mouse immortalized macrophages (iMACs) stably expressing ASC2, stimulated with nigericin; type: cell-based; parameters: endogenous in cells; host or cells: BMDMs of C57BL/6 wild-type and bat ASC2/rtTA mice; details: iMACs stably expressing equal ASC2-LSSmOrange, LPS 3 h, FIG. 11J, 11K
Source text: (§2) Generation of THP-1 and IMACs stable cells. […] Single cell clones were generated for THP-1 cells stably expressing ASC2-LSSmOrange.
as §1

bat ASC = test: Co-immunoprecipitation of ASC2-His with bat ASC-Flag from HEK293T cells; type: binding; details: 0.25 μg bat or hupa4 ASC2 vs 3 μg human ASC2 transfected, FIG. 26B
Procedure: (§3) Co-immunoprecipitation. HEK293T cells were transfected in 6-well plate with plasmids encoding His-tagged empty vector (His alone), bat ASC2, human ASC2, and Hupa4 ASC2 along with Flag-tagged human or bat ASC. 3 μg human ASC2, in contrast to 0.25 μg control, bat or hupa4 ASC2, were transfected to normalize the expression. At 48 h post-transfection, cells were lysed in IP lysis buffer (Pierce) according to manufacturer's protocol and centrifuged at 500 g for 10 minutes at 4° C. The supernatants were subjected to immunoprecipitation by incubation for 16 hours at 4° C. with anti-Flag (Sigma) incubated magnetic beads, followed by washing three times with TBS containing 0.05% Tween 20 and once with purified water. Bound proteins were separated by 15% SDS-PAGE, followed by immunoblotting analysis with the indicated antibodies.

NLRP3 inflammasome [5] = biological target: T2, NLRP3 inflammasome; test: Inflammasome activation in LPS-primed THP-1 macrophages stably expressing ASC2, stimulated with nigericin; type: cell-based; parameters: endogenous in cells; host or cells: THP-1 macrophages (PMA-differentiated, LPS-primed); details: THP-1 macrophages stably expressing equal ASC2-mCitrine, LPS 3 h, nigericin 2 h; FIG. 11L, 11M
Source text: as §2, §1
ImageStream imaging flow cytometry.

human ASC = biological target: T3, human ASC (Homo sapiens, UniProt Q9ULZ3); test: Co-immunoprecipitation of ASC2-His with human ASC-Flag from HEK293T cells; type: binding; details: 0.25 μg bat or hupa4 ASC2 vs 3 μg human ASC2 transfected, FIG. 26A
T3 construct: expressed in transfected cells; host or cells: HEK293T
Procedure: as §3

T2 sequence (Q9ULZ3 whole entry): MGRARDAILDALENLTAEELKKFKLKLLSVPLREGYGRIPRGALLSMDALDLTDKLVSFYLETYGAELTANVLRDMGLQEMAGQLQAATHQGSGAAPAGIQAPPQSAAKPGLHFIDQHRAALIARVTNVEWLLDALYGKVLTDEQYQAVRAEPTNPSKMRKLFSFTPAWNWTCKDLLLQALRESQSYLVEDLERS
T3 sequence (Q9ULZ3 whole entry): as above

Row | Molecule | Reason for discontinuation after phase II clinical trials [1] | Cell death (LDH release) ([2]; 100 ng/ml Pam3CSK4, immune complexes, FIG. 10M) | IL-1β secretion ([2]; Pam3CSK4 priming, immune complexes, FIG. 10I) | ASC2 filament formation / distribution (NLRP3 inflammasome [3]) | Co-localization with human ASC (NLRP3 inflammasome [3]; imaging, FIG. 3A) | ASC speck formation (human NLRP3 inflammasome activation) (NLRP3 inflammasome [3]; human NLRP3-mCitrine, human ASC-mPlum, 50 ng ASC2-LSSmOrange, 48 h post-transfection) | Inflammasome inhibition (LDH release and IL-1β secretion) (NLRP3 inflammasome [4]) | Interaction with bat ASC (co-IP) (bat ASC) | Inflammasome inhibition (LDH release and IL-1β secretion) (NLRP3 inflammasome [5]) | Interaction with human ASC (co-IP) (human ASC)
1 | CC(C)(O)c1coc(S(=O)(=O)NC(=O)Nc2c3c(cc4c2CCC4)CCC3)c1 [MCC950] | liver toxicity | abolished | abolished |  |  |  |  |  |  | 
2 | B1 |  |  |  | diffusely distributed | not between human ASC2 and human ASC |  |  |  |  | 
3 | B2 |  |  |  | form filaments |  | gained the ability to inhibit NLRP3 inflammasome | gain-of-function | interact with bat ASC more strongly than human ASC2 | gain-of-function | interact strongly with human ASC

Reference: patent publication US20240398896A1, “INFLAMMASOME INHIBITION” (National University of Singapore, priority 2021, published 2024)
